Assay results reported in paper PMC3835166 (Journal of molecular biology, 2012).
Blank lines part the entries; values can stand above or below the binder they belong to.

B2: raver1 RRM1-3 domains (residues 39-321) (domain or fragment, human, UniProt Q8IY67 39-321, looked up)
chain: LDPEEIRKRLEHTERQFRNRRKILIRGLPGDVTNQEVHDLLSDYELKYCFVDKYKGTAFVTLLNGEQAEAAINAFHQSRLRERELSVQLQPTDALLCVANLPPSLTQQQFEELVRPFGSLERCFLVYSERTGQSKGYGFAEYMKKDSAARAKSDLLGKPLGPRTLYVHWTDAGQLTPALLHSRCLCVDRLPPGFNDVDALCRALSAVHSPTFCQLACGQDGQLKGFAVLEYETAEMAEEAQQQADGLSLGGSHLRVSFCAPGPPGRSMLAALIAAQATALNRG

Assays:
[1] = target: B2; assay: native gel or EMSA
[2] = target: T1, full-length human metavinculin (human, UniProt P18206 1-1134); assay: native gel or EMSA
T1 sequence (looked up): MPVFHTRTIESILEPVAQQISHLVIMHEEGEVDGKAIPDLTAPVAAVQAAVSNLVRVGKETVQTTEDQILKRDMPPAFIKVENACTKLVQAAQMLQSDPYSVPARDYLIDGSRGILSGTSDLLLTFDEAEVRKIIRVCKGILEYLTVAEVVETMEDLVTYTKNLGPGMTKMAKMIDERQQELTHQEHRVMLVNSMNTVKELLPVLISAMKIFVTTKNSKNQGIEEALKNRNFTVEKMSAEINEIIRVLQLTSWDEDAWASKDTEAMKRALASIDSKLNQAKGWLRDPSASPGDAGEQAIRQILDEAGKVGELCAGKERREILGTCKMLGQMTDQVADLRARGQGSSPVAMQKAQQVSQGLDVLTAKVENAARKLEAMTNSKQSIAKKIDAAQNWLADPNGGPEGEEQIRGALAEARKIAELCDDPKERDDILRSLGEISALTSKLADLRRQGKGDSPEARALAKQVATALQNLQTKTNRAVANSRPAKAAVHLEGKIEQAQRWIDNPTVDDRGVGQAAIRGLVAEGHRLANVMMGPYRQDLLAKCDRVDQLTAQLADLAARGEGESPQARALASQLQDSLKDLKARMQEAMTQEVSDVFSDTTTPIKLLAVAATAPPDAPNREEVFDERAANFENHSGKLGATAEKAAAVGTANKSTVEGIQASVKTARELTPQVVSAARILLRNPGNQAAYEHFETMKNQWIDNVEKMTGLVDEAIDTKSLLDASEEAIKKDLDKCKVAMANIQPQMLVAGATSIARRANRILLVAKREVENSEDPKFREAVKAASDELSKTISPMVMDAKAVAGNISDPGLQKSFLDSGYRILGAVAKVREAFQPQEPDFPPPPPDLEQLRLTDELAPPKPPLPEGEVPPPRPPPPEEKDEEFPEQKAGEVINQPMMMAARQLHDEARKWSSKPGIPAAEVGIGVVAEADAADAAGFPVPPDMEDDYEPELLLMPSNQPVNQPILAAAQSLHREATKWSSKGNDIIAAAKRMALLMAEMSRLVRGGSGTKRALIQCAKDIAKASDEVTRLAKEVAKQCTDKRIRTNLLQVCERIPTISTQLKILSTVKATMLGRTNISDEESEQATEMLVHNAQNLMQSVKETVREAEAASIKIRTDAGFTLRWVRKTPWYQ

raver1 RRM2-RRM3 = target: T2, raver1 RRM2-RRM3 (UniProt Q8IY67 129-321); assay: EMSA
T2 sequence: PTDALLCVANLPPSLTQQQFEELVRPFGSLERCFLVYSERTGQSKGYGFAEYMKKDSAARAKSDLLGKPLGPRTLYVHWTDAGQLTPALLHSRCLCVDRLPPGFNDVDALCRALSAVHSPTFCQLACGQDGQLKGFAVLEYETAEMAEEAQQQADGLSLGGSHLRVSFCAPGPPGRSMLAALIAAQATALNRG

raver1 RRM1-3 = target: T3, raver1 RRM1-3 (UniProt Q8IY67 39-321); assay: EMSA
T3 sequence: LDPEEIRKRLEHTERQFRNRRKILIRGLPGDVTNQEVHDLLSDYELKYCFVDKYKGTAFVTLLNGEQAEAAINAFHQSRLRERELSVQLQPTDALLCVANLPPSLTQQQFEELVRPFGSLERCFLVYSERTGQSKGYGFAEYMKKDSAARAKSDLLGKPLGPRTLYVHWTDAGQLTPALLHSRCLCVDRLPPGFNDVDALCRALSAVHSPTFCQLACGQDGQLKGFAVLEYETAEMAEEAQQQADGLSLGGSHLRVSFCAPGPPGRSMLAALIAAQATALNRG

[3] = target: metavinculin tail MVt;raver1 RRM1-3 (Homo sapiens;Homo sapiens?, UniProt P18206;Q8IY67 856-1134;39-321, |); assay: EMSA

binding result [1]: binds
B1: MVt (metavinculin tail domain, residues 856-1134) (domain or fragment, human, UniProt P18206 856-1134, looked up)
chain: DELAPPKPPLPEGEVPPPRPPPPEEKDEEFPEQKAGEVINQPMMMAARQLHDEARKWSSKPGIPAAEVGIGVVAEADAADAAGFPVPPDMEDDYEPELLLMPSNQPVNQPILAAAQSLHREATKWSSKGNDIIAAAKRMALLMAEMSRLVRGGSGTKRALIQCAKDIAKASDEVTRLAKEVAKQCTDKRIRTNLLQVCERIPTISTQLKILSTVKATMLGRTNISDEESEQATEMLVHNAQNLMQSVKETVREAEAASIKIRTDAGFTLRWVRKTPWYQ

Binder: B2
binding result [2]: binds

B3: vinculin RNA 3089-3100 (ssRNA)
RNA: UCAUGCAGUCUG
binding result (raver1 RRM2-RRM3): no binding
binding result (raver1 RRM1-3): binds
binding result [3]: binds
